Measurements taken from the supplement of paper PMC9233669.
Fewer inactive variants are shown than the library holds.

Key:
[1] = test system: biotinyl-Ile-oxazolone; assay: self-aminoacylation, catalytic enhancement (BIO) (fold over background); higher = more active; k-Seq, kA / k0A0; sequences stand for … in GGGAAUGGAUCCACAUCUACGAAUUC…UUCACUGCAGACUUGACGAAGCUG
How it was run: (§1)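 Mutagenized RNA pools with a 21-nt variable region (0.43 μM) were reacted with each biotinyl-aminoacyl-oxazolone at 2–1250 μM for 90 minutes at room temperature, in 50 μL HEPES/NaCl/KCl/MgCl2/CaCl2 buffer containing 5% acetonitrile at pH 6.9–7.0. RNA captured on streptavidin was quantified by triplicate qPCR and by Illumina sequencing. The fraction reacted for each sequence was fit to a pseudo-first-order model with bootstrapping, and catalytic enhancement is the median kA divided by the uncatalyzed rate, taken as the low-activity peak of a bimodal Gaussian fit.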

[2] = test system: biotinyl-Met-oxazolone; assay: self-aminoacylation, catalytic enhancement (BMO) (fold over background); higher = more active; k-Seq, kA / k0A0; sequences stand for … in GGGAAUGGAUCCACAUCUACGAAUUC…UUCACUGCAGACUUGACGAAGCUG
How it was run: as §1

[3] = test system: biotinyl-Val-oxazolone; assay: self-aminoacylation, catalytic enhancement (BVO) (fold over background); higher = more active; k-Seq, kA / k0A0; sequences stand for … in GGGAAUGGAUCCACAUCUACGAAUUC…UUCACUGCAGACUUGACGAAGCUG
How it was run: as §1

[4] = test system: biotinyl-Trp-oxazolone; assay: self-aminoacylation, catalytic enhancement (BWO) (fold over background); higher = more active; k-Seq, kA / k0A0; sequences stand for … in GGGAAUGGAUCCACAUCUACGAAUUC…UUCACUGCAGACUUGACGAAGCUG
How it was run: as §1

[5] = test system: biotinyl-Phe-oxazolone; assay: self-aminoacylation, catalytic enhancement (BFO) (fold over background); higher = more active; k-Seq, kA / k0A0; sequences stand for … in GGGAAUGGAUCCACAUCUACGAAUUC…UUCACUGCAGACUUGACGAAGCUG
How it was run: as §1

[6] = test system: biotinyl-Leu-oxazolone; assay: self-aminoacylation, catalytic enhancement (BLO) (fold over background); higher = more active; k-Seq, kA / k0A0; sequences stand for … in GGGAAUGGAUCCACAUCUACGAAUUC…UUCACUGCAGACUUGACGAAGCUG
How it was run: as §1

Row | Sequence | self-aminoacylation [1] | self-aminoacylation [2] | self-aminoacylation [3] | self-aminoacylation [4] | self-aminoacylation [5] | self-aminoacylation [6]
1 | AUUACCCUGGACAUUGAGUGA [Fam2.1 aminoacylation ribozyme variant] | 4.56 | 11.3 | 4.58 | 13.4 | 69.4 | 10.4
2 | AUUACCCUGGCCAUCGAGCGA [Fam2.1 aminoacylation ribozyme variant] | 2.02 | 1.61 | 1.93 | 2.39 | 9.68 | 1.66
3 | AUUACCCUGGCCAUCGAUUGA [Fam2.1 aminoacylation ribozyme variant] | 0.753 | 1.03 | 0.974 | 0.913 | 0.28 | 0.851
4 | AUUACCCUGGGCAUCGAGUCA [Fam2.1 aminoacylation ribozyme variant] | 0.946 | 0.719 | 0.768 | 0.708 | 0.615 | 0.72
5 | AUUACCCUGGGCAUCGAGUGA [Fam2.1 aminoacylation ribozyme variant] | 2.57 | 4.85 | 2.75 | 5.82 | 21.4 | 5.1
6 | AUUACCCUGGGCAUCGAGUUA [Fam2.1 aminoacylation ribozyme variant] | 0.909 | 0.642 | 1.11 | 0.678 | 1.15 | 0.805
7 | AUUACCCUGGGCAUCGAUUGA [Fam2.1 aminoacylation ribozyme variant] | 0.645 | 0.593 | 0.648 | 0.622 | 0.38 | 0.749
8 | AUUACCCUGGGCAUCUAGUGA [Fam2.1 aminoacylation ribozyme variant] | 3 | 6.2 | 3.38 | 7.33 | 44.6 | 7.13
9 | AUUACCCUGGUAAACGAGUGA [Fam2.1 aminoacylation ribozyme variant] | 7.26 | 19.8 | 7.77 | 20.1 | 150 | 19.1
10 | AUUACCCUGGUAAUCGAGGGA [Fam2.1 aminoacylation ribozyme variant] | 1.1 | 0.924 | 1.04 | 0.832 | 0.55 | 0.931
11 | AUUACCCUGGUAAUCGAGUGA [Fam2.1 aminoacylation ribozyme variant] | 3.7 | 8.63 | 3.82 | 9.96 | 54.5 | 8.46
12 | AUUACCCUGGUCAAAGAGUGA [Fam2.1 aminoacylation ribozyme variant] | 4 | 8.35 | 4.26 | 10.5 | 45.6 | 8.08
13 | AUUACCCUGGUCAACAAGUGA [Fam2.1 aminoacylation ribozyme variant] | 3.48 | 7.83 | 3.85 | 8.34 | 23.2 | 6.6
14 | AUUACCCUGGUCAACGAGAGA [Fam2.1 aminoacylation ribozyme variant] | 0.807 | 0.82 | 0.904 | 0.896 | 0.544 | 0.664
15 | AUUACCCUGGUCAAGGAGUGA [Fam2.1 aminoacylation ribozyme variant] | 1.94 | 3.47 | 2.04 | 3.32 | 3.96 | 2.87
16 | AUUACCCUGGUCACCGUGUGA [Fam2.1 aminoacylation ribozyme variant] | 1.98 | 3.88 | 2.06 | 5.51 | 21.1 | 3.95
17 | AUUACCCUGGUCACCUAGUGA [Fam2.1 aminoacylation ribozyme variant] | 2.12 | 4.99 | 2.49 | 5.72 | 25.9 | 4.95
18 | AUUACCCUGGUCAGCGAGAGA [Fam2.1 aminoacylation ribozyme variant] | 1.43 | 1.27 | 1.51 | 1.54 | 0.961 | 1.26
19 | AUUACCCUGGUCAGCGAGUAA [Fam2.1 aminoacylation ribozyme variant] | 1.19 | 1.48 | 1.27 | 0.914 | 0.633 | 1.14
20 | AUUACCCUGGUCAGGGAGUGA [Fam2.1 aminoacylation ribozyme variant] | 2.57 | 3.36 | 2.54 | 2.41 | 18.9 | 3.27
21 | AUUACCCUGGUCAUAGAGUGA [Fam2.1 aminoacylation ribozyme variant] | 4.72 | 10.4 | 4.94 | 11.9 | 54.8 | 9.8
22 | AUUACCCUGGUCAUAGGGUGA [Fam2.1 aminoacylation ribozyme variant] | 4.03 | 6.67 | 3.12 | 7.12 | 42.3 | 7.73
23 | AUUACCCUGGUCAUCAAAUGA [Fam2.1 aminoacylation ribozyme variant] | 1.1 | 1.14 | 0.806 | 0.735 | 1.1 | 0.969
24 | AUUACCCUGGUCAUCAAGCGA [Fam2.1 aminoacylation ribozyme variant] | 0.846 | 1 | 1.13 | 0.661 | 0.84 | 0.895
25 | AUUACCCUGGUCAUCAAGUGA [Fam2.1 aminoacylation ribozyme variant] | 1.51 | 2.31 | 1.79 | 2.87 | 4.11 | 2.25
26 | AUUACCCUGGUCAUCCAUUGA [Fam2.1 aminoacylation ribozyme variant] | 1.08 | 0.84 | 1.08 | 0.684 | 1.15 | 1.14

Row | Sequence | self-aminoacylation [1] | self-aminoacylation [2] | self-aminoacylation [3] | self-aminoacylation [4] | self-aminoacylation [5] | self-aminoacylation [6]
27 | AUUACCCUGGUCAUCCCGUGA [Fam2.1 aminoacylation ribozyme variant] | 3.61 | 7.44 | 4.22 | 9.33 | 43.3 | 9.66
28 | AUUACCCUGGUCAUCGAAUGU [Fam2.1 aminoacylation ribozyme variant] | 0.894 | 0.925 | 0.788 | 0.653 | 0.64 | 1.06
29 | AUUACCCUGGUCAUCGAAUUA [Fam2.1 aminoacylation ribozyme variant] | 1.26 | 1.5 | 1.18 | 0.504 | 0.751 | 0.955
30 | AUUACCCUGGUCAUCGAGCGA [Fam2.1 aminoacylation ribozyme variant] | 2.15 | 3.51 | 2.18 | 3.33 | 3.41 | 3.7
31 | AUUACCCUGGUCAUCGAGUCG [Fam2.1 aminoacylation ribozyme variant] | 0.765 | 0.797 | 0.976 | 0.725 | 0.759 | 0.794
32 | AUUACCCUGGUCAUCGAGUUA [Fam2.1 aminoacylation ribozyme variant] | 4.08 | 10.8 | 4.86 | 8.28 | 26.4 | 10.3
33 | AUUACCCUGGUCAUCGCGUGA [Fam2.1 aminoacylation ribozyme variant] | 8.09 | 18.3 | 9.74 | 20.1 | 139 | 20.3
34 | AUUACCCUGGUCAUCGGGUGA [Fam2.1 aminoacylation ribozyme variant] | 47 | 122 | 60.9 | 140 | 711 | 133
35 | AUUACCCUGGUCAUCGGGUGU [Fam2.1 aminoacylation ribozyme variant] | 40.7 | 123 | 56.5 | 133 | 722 | 136
36 | AUUACCCUGGUCAUCGGGUUA [Fam2.1 aminoacylation ribozyme variant] | 12.3 | 38.5 | 17.8 | 45.8 | 218 | 42.4
37 | AUUACCCUGGUCAUCGGUUGA [Fam2.1 aminoacylation ribozyme variant] | 1.62 | 2 | 1.34 | 3.08 | 6.78 | 1.94
38 | AUUACCCUGGUCAUCGUAUGA [Fam2.1 aminoacylation ribozyme variant] | 0.789 | 0.984 | 1.02 | 0.855 | 0.633 | 0.814
39 | AUUACCCUGGUCAUCGUGGGA [Fam2.1 aminoacylation ribozyme variant] | 1.18 | 1.33 | 1.22 | 1.98 | 4.91 | 1.58
40 | AUUACCCUGGUCAUCUAGUGU [Fam2.1 aminoacylation ribozyme variant] | 2.02 | 4.11 | 2.48 | 4.88 | 9.89 | 4.08
41 | AUUACCCUGGUCAUGGAGGGA [Fam2.1 aminoacylation ribozyme variant] | 1.82 | 1.83 | 1.76 | 2.23 | 2.1 | 1.86
42 | AUUACCCUGGUCAUGGAGUCA [Fam2.1 aminoacylation ribozyme variant] | 0.907 | 0.798 | 1.01 | 0.594 | 0.746 | 0.838
43 | AUUACCCUGGUCAUUGCGUGA [Fam2.1 aminoacylation ribozyme variant] | 6.44 | 15.8 | 7.31 | 17.1 | 108 | 18.1
44 | AUUACCCUGGUCAUUUAGUGA [Fam2.1 aminoacylation ribozyme variant] | 5.57 | 11.7 | 5.82 | 14.4 | 70 | 11.1
45 | AUUACCCUGGUCCUCGCGUGA [Fam2.1 aminoacylation ribozyme variant] | 5.45 | 11 | 7.66 | 13.8 | 87.3 | 15.1
46 | AUUACCCUGGUCCUCGGGUGA [Fam2.1 aminoacylation ribozyme variant] | 5.18 | 9.89 | 6.25 | 9.25 | 69.6 | 10.4
47 | AUUACCCUGGUCCUCUAGUGA [Fam2.1 aminoacylation ribozyme variant] | 4.37 | 9.46 | 5.33 | 12.3 | 79.1 | 10.6
48 | AUUACCCUGGUCGCCGAGUGA [Fam2.1 aminoacylation ribozyme variant] | 3.48 | 4.14 | 2.58 | 4.48 | 22.8 | 5.59
49 | AUUACCCUGGUCGUCGAAUGA [Fam2.1 aminoacylation ribozyme variant] | 0.785 | 1.22 | 0.838 | 1.1 | 3.37 | 0.734
50 | AUUACCCUGGUCUACGAGUGA [Fam2.1 aminoacylation ribozyme variant] | 3.67 | 6.17 | 3.68 | 7.19 | 25.5 | 6.37
51 | AUUACCCUGGUCUUCGAAUGA [Fam2.1 aminoacylation ribozyme variant] | 0.649 | 0.746 | 0.728 | 0.642 | 0.408 | 0.694
